Data from patent publication US20060257938A1, “Method of screening for drugs that block ligand binding to a lipid binding protein” (priority 2005, published 2006).

Experiments:
Assay type in all cases: binding
Conditions in all cases: response relative to ADIFAB2
[1] = Probe fluorescence ratio response to palmitic acid relative to ADIFAB2
Procedure, shortened: (§1)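 Fluorescently labeled rat intestinal FABP variants were read at two emission wavelengths, near the unbound maximum (about 420 to 480 nm) and the FFA-bound maximum (about 495 to 580 nm). R = Fλ1/Fλ2 after subtracting probe-free intensity; ΔR = R+agent − R0, normalized to ADIFAB2 (rI-FABP-L72A).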

[2] = Probe fluorescence ratio response to arachidonic acid relative to ADIFAB2
Procedure, shortened: as §1

[3] = Probe fluorescence ratio response to oleic acid relative to ADIFAB2
Procedure, shortened: as §1

[4] = Probe fluorescence ratio response to linolenic acid relative to ADIFAB2
Procedure, shortened: as §1

[5] = Probe fluorescence ratio response to linoleic acid relative to ADIFAB2
Procedure, shortened: as §1

B1: 49A1, 72A (protein, listed as Rattus norvegicus)
chain: AFDGTWKVDRNENYEKFMEKMGINVVKRKLGAHDNLKLTITQEGNKFTAKESSNFRNIDVVFELGVDFAYSAADGTELTGTWTMEGNKLVGKFKRVDNGKELIAVREISGNELIQTYTYEGVEAKRIFKKE
modifications: PEPTIDE (1)...(131) wild-type rat intestinal fatty acid binding protein
With B1 as the molecule, how does the “DR/DR PA” value [1] read?
Its value is 0.79.

What about the “DR/DR AA” value ([2]; Arachidonic acid) of the same molecule?
The value was 1.72.

And the “DR/DR OA” value [3]?
Its value is 1.60.

And the “DR/DR LNA” value [4]?
Its value is 1.68.

What about the “DR/DR LA” value [5] of the same molecule?
The value was 1.72.

B2: 49M1, 72A (protein, listed as Rattus norvegicus)
chain: AFDGTWKVDRNENYEKFMEKMGINVVKRKLGAHDNLKLTITQEGNKFTMKESSNFRNIDVVFELGVDFAYSAADGTELTGTWTMEGNKLVGKFKRVDNGKELIAVREISGNELIQTYTYEGVEAKRIFKKE
modifications: PEPTIDE (1)...(131) wild-type rat intestinal fatty acid binding protein
With B2 as the molecule, how does the “DR/DR PA” value [1] read?
The value was 0.94.

And the “DR/DR AA” value ([2]; Arachidonic acid)?
The value was 1.36.

And the “DR/DR OA” value [3]?
The value was 1.30.

What about the “DR/DR LNA” value [4] of the same molecule?
The value was 1.37.

And the “DR/DR LA” value [5]?
The value was 1.37.

B3: 49D1, 72A (protein, listed as Rattus norvegicus)
chain: AFDGTWKVDRNENYEKFMEKMGINVVKRKLGAHDNLKLTITQEGNKFTDKESSNFRNIDVVFELGVDFAYSAADGTELTGTWTMEGNKLVGKFKRVDNGKELIAVREISGNELIQTYTYEGVEAKRIFKKE
modifications: PEPTIDE (1)...(131) wild-type rat intestinal fatty acid binding protein
For B3, which “DR/DR PA” value [1] is on record?
Its value is 0.16.

What about the “DR/DR AA” value ([2]; Arachidonic acid) of the same molecule?
The value was 0.31.

And the “DR/DR OA” value [3]?
The value was 0.32.

And the “DR/DR LNA” value [4]?
Its value is 0.30.

What about the “DR/DR LA” value [5] of the same molecule?
Its value is 0.32.

B4: 49P1, 72A (protein, listed as Rattus norvegicus)
chain: AFDGTWKVDRNENYEKFMEKMGINVVKRKLGAHDNLKLTITQEGNKFTPKESSNFRNIDVVFELGVDFAYSAADGTELTGTWTMEGNKLVGKFKRVDNGKELIAVREISGNELIQTYTYEGVEAKRIFKKE
modifications: PEPTIDE (1)...(131) wild-type rat intestinal fatty acid binding protein
With B4 as the molecule, how does the “DR/DR PA” value [1] read?
Its value is 0.76.

And the “DR/DR AA” value ([2]; Arachidonic acid)?
The value was 1.57.

What about the “DR/DR OA” value [3] of the same molecule?
Its value is 1.40.

And the “DR/DR LNA” value [4]?
Its value is 1.53.

And the “DR/DR LA” value [5]?
Its value is 1.59.

B5: 49L1, 72A (protein, listed as Rattus norvegicus)
chain: AFDGTWKVDRNENYEKFMEKMGINVVKRKLGAHDNLKLTITQEGNKFTLKESSNFRNIDVVFELGVDFAYSAADGTELTGTWTMEGNKLVGKFKRVDNGKELIAVREISGNELIQTYTYEGVEAKRIFKKE
modifications: PEPTIDE (1)...(131) wild-type rat intestinal fatty acid binding protein
What does the source list for B5?
DR/DR PA [1]: 1.00; DR/DR AA ([2]; Arachidonic acid): 1.76; DR/DR OA [3]: 1.67; DR/DR LNA [4]: 1.77; DR/DR LA [5]: 1.81

B6: 49Q, 72A (protein, listed as Rattus norvegicus)
chain: AFDGTWKVDRNENYEKFMEKMGINVVKRKLGAHDNLKLTITQEGNKFTQKESSNFRNIDVVFELGVDFAYSAADGTELTGTWTMEGNKLVGKFKRVDNGKELIAVREISGNELIQTYTYEGVEAKRIFKKE
modifications: PEPTIDE (1)...(131) wild-type rat intestinal fatty acid binding protein
With B6 as the molecule, how does the “DR/DR PA” value [1] read?
The value was 0.43.

And the “DR/DR AA” value ([2]; Arachidonic acid)?
The value was 0.62.

And the “DR/DR OA” value [3]?
The value was 0.56.

And the “DR/DR LNA” value [4]?
The value was 0.55.

What about the “DR/DR LA” value [5] of the same molecule?
The value was 0.58.

B7: 49I1, 72A (protein, listed as Rattus norvegicus)
chain: AFDGTWKVDRNENYEKFMEKMGINVVKRKLGAHDNLKLTITQEGNKFTIKESSNFRNIDVVFELGVDFAYSAADGTELTGTWTMEGNKLVGKFKRVDNGKELIAVREISGNELIQTYTYEGVEAKRIFKKE
modifications: PEPTIDE (1)...(131) wild-type rat intestinal fatty acid binding protein
With B7 as the molecule, how does the “DR/DR PA” value [1] read?
The value was 1.16.

And the “DR/DR AA” value ([2]; Arachidonic acid)?
Its value is 1.80.

And the “DR/DR OA” value [3]?
Its value is 1.80.

What about the “DR/DR LNA” value [4] of the same molecule?
Its value is 1.82.

What about the “DR/DR LA” value [5] of the same molecule?
The value was 1.84.

B8: 49C1, 72A (protein, listed as Rattus norvegicus)
chain: AFDGTWKVDRNENYEKFMEKMGINVVKRKLGAHDNLKLTITQEGNKFTCKESSNFRNIDVVFELGVDFAYSAADGTELTGTWTMEGNKLVGKFKRVDNGKELIAVREISGNELIQTYTYEGVEAKRIFKKE
modifications: PEPTIDE (1)...(131) wild-type rat intestinal fatty acid binding protein
For B8, which “DR/DR PA” value [1] is on record?
The value was −0.18.

What about the “DR/DR AA” value ([2]; Arachidonic acid) of the same molecule?
The value was −0.13.

What about the “DR/DR OA” value [3] of the same molecule?
Its value is −0.20.

And the “DR/DR LNA” value [4]?
The value was −0.18.

What about the “DR/DR LA” value [5] of the same molecule?
The value was −0.21.

B9: 49N1, 72A (protein, listed as Rattus norvegicus)
chain: AFDGTWKVDRNENYEKFMEKMGINVVKRKLGAHDNLKLTITQEGNKFTNKESSNFRNIDVVFELGVDFAYSAADGTELTGTWTMEGNKLVGKFKRVDNGKELIAVREISGNELIQTYTYEGVEAKRIFKKE
modifications: PEPTIDE (1)...(131) wild-type rat intestinal fatty acid binding protein
With B9 as the molecule, how does the “DR/DR PA” value [1] read?
Its value is 0.74.

And the “DR/DR AA” value ([2]; Arachidonic acid)?
Its value is 1.26.

And the “DR/DR OA” value [3]?
Its value is 1.11.

And the “DR/DR LNA” value [4]?
The value was 1.18.

What about the “DR/DR LA” value [5] of the same molecule?
Its value is 1.10.

B10: 49H1, 72A (protein, listed as Rattus norvegicus)
chain: AFDGTWKVDRNENYEKFMEKMGINVVKRKLGAHDNLKLTITQEGNKFTHKESSNFRNIDVVFELGVDFAYSAADGTELTGTWTMEGNKLVGKFKRVDNGKELIAVREISGNELIQTYTYEGVEAKRIFKKE
modifications: PEPTIDE (1)...(131) wild-type rat intestinal fatty acid binding protein
With B10 as the molecule, how does the “DR/DR PA” value [1] read?
Its value is 0.75.

What about the “DR/DR AA” value ([2]; Arachidonic acid) of the same molecule?
The value was 1.47.

And the “DR/DR OA” value [3]?
Its value is 1.39.

And the “DR/DR LNA” value [4]?
The value was 1.54.

And the “DR/DR LA” value [5]?
Its value is 1.58.

B11: 49G1, 72A (protein, listed as Rattus norvegicus)
chain: AFDGTWKVDRNENYEKFMEKMGINVVKRKLGAHDNLKLTITQEGNKFTGKESSNFRNIDVVFELGVDFAYSAADGTELTGTWTMEGNKLVGKFKRVDNGKELIAVREISGNELIQTYTYEGVEAKRIFKKE
modifications: PEPTIDE (1)...(131) wild-type rat intestinal fatty acid binding protein
What does the source list for B11?
DR/DR PA [1]: 0.64; DR/DR AA ([2]; Arachidonic acid): 1.26; DR/DR OA [3]: 1.15; DR/DR LNA [4]: 1.25; DR/DR LA [5]: 1.29

B12: 102V, 72A (protein, listed as Rattus norvegicus)
chain: AFDGTWKVDRNENYEKFMEKMGINVVKRKLGAHDNLKLTITQEGNKFTVKESSNFRNIDVVFELGVDFAYSAADGTELTGTWTMEGNKLVGKFKRVDNGKEVIAVREISGNELIQTYTYEGVEAKRIFKKE
modifications: PEPTIDE (1)...(131) wild-type rat intestinal fatty acid binding protein
With B12 as the molecule, how does the “DR/DR PA” value [1] read?
Its value is 0.35.

And the “DR/DR AA” value ([2]; arachidonic acid)?
The value was 0.46.

What about the “DR/DR OA” value [3] of the same molecule?
Its value is 0.57.

What about the “DR/DR LNA” value [4] of the same molecule?
Its value is 0.51.

What about the “DR/DR LA” value [5] of the same molecule?
The value was 0.67.

B13: 49K1, 72A (protein, listed as Rattus norvegicus)
chain: AFDGTWKVDRNENYEKFMEKMGINVVKRKLGAHDNLKLTITQEGNKFTKKESSNFRNIDVVFELGVDFAYSAADGTELTGTWTMEGNKLVGKFKRVDNGKELIAVREISGNELIQTYTYEGVEAKRIFKKE
modifications: PEPTIDE (1)...(131) wild-type rat intestinal fatty acid binding protein
Which “DR/DR PA” value [1] does the source give for B13 here?
The value was 0.80.

And the “DR/DR AA” value ([2]; Arachidonic acid)?
The value was 1.64.

And the “DR/DR OA” value [3]?
The value was 1.51.

What about the “DR/DR LNA” value [4] of the same molecule?
The value was 1.68.

What about the “DR/DR LA” value [5] of the same molecule?
Its value is 1.71.

B14: 49F1, 72A (protein, listed as Rattus norvegicus)
chain: AFDGTWKVDRNENYEKFMEKMGINVVKRKLGAHDNLKLTITQEGNKFTFKESSNFRNIDVVFELGVDFAYSAADGTELTGTWTMEGNKLVGKFKRVDNGKELIAVREISGNELIQTYTYEGVEAKRIFKKE
modifications: PEPTIDE (1)...(131) wild-type rat intestinal fatty acid binding protein
For B14, which “DR/DR PA” value [1] is on record?
Its value is 0.75.

What about the “DR/DR AA” value ([2]; Arachidonic acid) of the same molecule?
The value was 1.18.

What about the “DR/DR OA” value [3] of the same molecule?
Its value is 1.14.

What about the “DR/DR LNA” value [4] of the same molecule?
Its value is 1.18.

What about the “DR/DR LA” value [5] of the same molecule?
Its value is 1.14.

B15: 102T, 72A (protein, listed as Rattus norvegicus)
chain: AFDGTWKVDRNENYEKFMEKMGINVVKRKLGAHDNLKLTITQEGNKFTVKESSNFRNIDVVFELGVDFAYSAADGTELTGTWTMEGNKLVGKFKRVDNGKETIAVREISGNELIQTYTYEGVEAKRIFKKE
modifications: PEPTIDE (1)...(131) wild-type rat intestinal fatty acid binding protein
With B15 as the molecule, how does the “DR/DR PA” value [1] read?
Its value is 0.12.

What about the “DR/DR AA” value ([2]; arachidonic acid) of the same molecule?
Its value is 0.21.

What about the “DR/DR OA” value [3] of the same molecule?
Its value is 0.26.

What about the “DR/DR LNA” value [4] of the same molecule?
Its value is 0.24.

And the “DR/DR LA” value [5]?
The value was 0.26.

B16: 49Q1, 72A (protein, listed as Rattus norvegicus)
chain: AFDGTWKVDRNENYEKFMEKMGINVVKRKLGAHDNLKLTITQEGNKFTQKESSNFRNIDVVFELGVDFAYSAADGTELTGTWTMEGNKLVGKFKRVDNGKELIAVREISGNELIQTYTYEGVEAKRIFKKE
modifications: PEPTIDE (1)...(131) wild-type rat intestinal fatty acid binding protein
What does the source list for B16?
DR/DR PA [1]: 0.69; DR/DR AA ([2]; Arachidonic acid): 0.92; DR/DR OA [3]: 1.20; DR/DR LNA [4]: 1.23; DR/DR LA [5]: 1.25

B17: 49R1, 72A (protein, listed as Rattus norvegicus)
chain: AFDGTWKVDRNENYEKFMEKMGINVVKRKLGAHDNLKLTITQEGNKFTRKESSNFRNIDVVFELGVDFAYSAADGTELTGTWTMEGNKLVGKFKRVDNGKELIAVREISGNELIQTYTYEGVEAKRIFKKE
modifications: PEPTIDE (1)...(131) wild-type rat intestinal fatty acid binding protein
What does the source list for B17?
DR/DR PA [1]: 0.78; DR/DR AA ([2]; Arachidonic acid): 1.68; DR/DR OA [3]: 1.56; DR/DR LNA [4]: 1.70; DR/DR LA [5]: 1.75
